Source: the RNAGym collection of RNA variant scans (doi:10.1073/pnas.2313332121)
This sample holds only a part of the variants without activity.

B1: TPR 5TU (parent)
chain: GGAUCUUCUCGAUCUAACAAAAAAGACAAAUCUGCCACAAAGCUUGAGAGCAUCUUCGGAUGCAGAGGCGGCAGCCUUCGGUGGCGCGAUAGCGCCAACGUUCUCAACUAUGACACGCAAAACGCGUGCUCCGUUGAAUGGAGUUUAUCAUG

Variants of: B1
Assay: polymerase ribozyme fitness, log enrichment relative to wild type (log ratio); higher = more active; in vitro selection for triplet polymerase activity
Outline: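 Libraries of mutants in each subunit of a heterodimeric triplet polymerase ribozyme were generated by PCR and transcribed. In triplicate, each went through one in vitro selection round: annealing with biotinylated primer, partner subunit and triplets; frozen incubation at −7 °C; gel excision of extended constructs; streptavidin-bead capture; RT-PCR. Fitness, taken from Illumina sequencing of input and output libraries, is the logarithm of a genotype's enrichment over wild-type enrichment, averaged across replicates with inverse-variance weights. The logarithm is base 2, and genotypes needed ≥10 input reads and ≥1 read per output to be kept.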
With C18U C51A A52G A122C the “polymerase ribozyme fitness (log ratio)” value was -1.98. In the case of A16U A22U A23G A60U C95U C108U A119G C123U, the “polymerase ribozyme fitness (log ratio)” value is reported as at most -4.2. For A16U G25U C27U A28U C43U G94C C99G C125A U148C U151G, the “polymerase ribozyme fitness (log ratio)” value was at most -4.2. In the case of A16U A22U A37G C72U, the “polymerase ribozyme fitness (log ratio)” value is reported as -3.87. For C18G A21G G48U U82A G100A G136A, the “polymerase ribozyme fitness (log ratio)” value was at most -4.2. In the case of A17G C54G C93G A106G G126U G141U U144C, the “polymerase ribozyme fitness (log ratio)” value is reported as at most -4.2. For C18A U31C A40C G62C A91C A119G, the “polymerase ribozyme fitness (log ratio)” value was at most -4.2. For C18U A52C U145G, the “polymerase ribozyme fitness (log ratio)” value was -2.09. For A19C A66G, the “polymerase ribozyme fitness (log ratio)” value was -3.95. In the case of C18G A19U G25U A89U G94A C131U, the “polymerase ribozyme fitness (log ratio)” value is reported as -3.92. With A16U C87U A89U G140U G143A the “polymerase ribozyme fitness (log ratio)” value was at most -4.2. With C18U A26C C38U U78G A98U U145G U151A the “polymerase ribozyme fitness (log ratio)” value was at most -4.2. For A16U C57A G58U C75G C87A C99U A142C U144C, the “polymerase ribozyme fitness (log ratio)” value was at most -4.2. For C18G C54U U61G C87U C95U, the “polymerase ribozyme fitness (log ratio)” value was -3.85. For C18U C32U G83U, the “polymerase ribozyme fitness (log ratio)” value was -3.14. For A17C C85U A120G G124U G143C, the “polymerase ribozyme fitness (log ratio)” value was -3.22. In the case of C18U A22G A30G G34U G42U U77A C96A, the “polymerase ribozyme fitness (log ratio)” value is reported as at most -4.2. In the case of C18U C38G A52G U101G, the “polymerase ribozyme fitness (log ratio)” value is reported as -1.69. With A17C C85G G94A C123A G124U the “polymerase ribozyme fitness (log ratio)” value was -1.12. In the case of A17G A20U G84A A97U A115C, the “polymerase ribozyme fitness (log ratio)” value is reported as -3.45. With C18G A21U C93U G141U the “polymerase ribozyme fitness (log ratio)” value was 0.314. In the case of A16U A20G A37C C95G U102G A113U, the “polymerase ribozyme fitness (log ratio)” value is reported as at most -4.2. With C18G C38U C72U the “polymerase ribozyme fitness (log ratio)” value was -0.0428. With A16U U31C C35U A37C C76G C105G G117A the “polymerase ribozyme fitness (log ratio)” value was at most -4.2. In the case of A17C C85A C99A, the “polymerase ribozyme fitness (log ratio)” value is reported as -2.66. With A16U A30U C87A the “polymerase ribozyme fitness (log ratio)” value was at most -4.2. In the case of A17U A24U U56G, the “polymerase ribozyme fitness (log ratio)” value is reported as -0.773. In the case of A17U A49G G86U, the “polymerase ribozyme fitness (log ratio)” value is reported as -1.95. For A17G G86A C93U A97U, the “polymerase ribozyme fitness (log ratio)” value was 0.0217. In the case of A17U G50A G67U G74A U134G, the “polymerase ribozyme fitness (log ratio)” value is reported as at most -4.2. For A16U G50A G92U A98G C132G A142U, the “polymerase ribozyme fitness (log ratio)” value was at most -4.2. For A17C C54U A73U G94U A106G, the “polymerase ribozyme fitness (log ratio)” value was -2.62. With A17G C36G G83C C99U U104G C125U U145C A147C the “polymerase ribozyme fitness (log ratio)” value was at most -4.2. For C18G G50A A91G G94C C132G, the “polymerase ribozyme fitness (log ratio)” value was at most -4.2. In the case of A19C A26C C38A C43G G74U G80C, the “polymerase ribozyme fitness (log ratio)” value is reported as at most -4.2. For C18U C51A U53A C57U G59C C95A, the “polymerase ribozyme fitness (log ratio)” value was -4.09. In the case of A17C U31G G48A U53A G80C C85U G133U G140U A142U G152U, the “polymerase ribozyme fitness (log ratio)” value is reported as at most -4.2. For A17U C69G G80C A107U C131U U145G, the “polymerase ribozyme fitness (log ratio)” value was at most -4.2. For C18U G42A C85U C103U, the “polymerase ribozyme fitness (log ratio)” value was -4.11. With A16U G84U C129A the “polymerase ribozyme fitness (log ratio)” value was at most -4.2. For A17G A21C G46C G58U U135G, the “polymerase ribozyme fitness (log ratio)” value was -4.12. In the case of A17C C18A U33A G80C C87A C108A G152C, the “polymerase ribozyme fitness (log ratio)” value is reported as at most -4.2. With C18G C32G U55A G83U G88U A113C A138C the “polymerase ribozyme fitness (log ratio)” value was at most -4.2. With C18G U61G U77G U82C C103G the “polymerase ribozyme fitness (log ratio)” value was at most -4.2. For C18U A91G A120G C132U G141C, the “polymerase ribozyme fitness (log ratio)” value was at most -4.2. With A17U A21G A40G U55A A60G C95A U146C the “polymerase ribozyme fitness (log ratio)” value was -2.4. For C18U A26U U31A U53A G94U, the “polymerase ribozyme fitness (log ratio)” value was at most -4.2. In the case of A17C C51A C93U A115U, the “polymerase ribozyme fitness (log ratio)” value is reported as -2.93. In the case of A17U G62U G84U, the “polymerase ribozyme fitness (log ratio)” value is reported as -2.48. In the case of A17G C69A U82G G86C G117U G140C U145A, the “polymerase ribozyme fitness (log ratio)” value is reported as at most -4.2. With A17G C32U C35G G62C C75A the “polymerase ribozyme fitness (log ratio)” value was at most -4.2. In the case of A16U U61G U77C C85A G92C U144A, the “polymerase ribozyme fitness (log ratio)” value is reported as at most -4.2. For A16U G92U C99G, the “polymerase ribozyme fitness (log ratio)” value was -3.45. For A17G A39G C79G A89U C96G, the “polymerase ribozyme fitness (log ratio)” value was -4.19. With A17G G62U C87U A122G U127G C132G the “polymerase ribozyme fitness (log ratio)” value was at most -4.2. With C18G A40U A47U U101G the “polymerase ribozyme fitness (log ratio)” value was -0.397. For A17U C35U A40U G92U, the “polymerase ribozyme fitness (log ratio)” value was -2.32. For C18G A41U A91G U148G, the “polymerase ribozyme fitness (log ratio)” value was at most -4.2. With A17U A98U the “polymerase ribozyme fitness (log ratio)” value was -1.12. With A17G A39G C57A C96A the “polymerase ribozyme fitness (log ratio)” value was -2. With A16U A41C G42A G65A A66G C87A U90G the “polymerase ribozyme fitness (log ratio)” value was at most -4.2. For C18U C85A, the “polymerase ribozyme fitness (log ratio)” value was -0.837. With C18G G83U C95U the “polymerase ribozyme fitness (log ratio)” value was -2.08. For C18U A30U C99G A106U, the “polymerase ribozyme fitness (log ratio)” value was at most -4.2. With C18U A60G G62A G86A C149U the “polymerase ribozyme fitness (log ratio)” value was -3.44. With C18U G46U G94A C131U the “polymerase ribozyme fitness (log ratio)” value was -1.88. For C18G G88A G100C C103G, the “polymerase ribozyme fitness (log ratio)” value was at most -4.2. With A16U C93G C105G the “polymerase ribozyme fitness (log ratio)” value was at most -4.2. In the case of A19C A28C A52G U56A G83A A142C, the “polymerase ribozyme fitness (log ratio)” value is reported as at most -4.2. For A17G A41G C54U, the “polymerase ribozyme fitness (log ratio)” value was 0.908. In the case of A17C A22C A73C A91C C95G U101A G143A, the “polymerase ribozyme fitness (log ratio)” value is reported as at most -4.2. For A17C U53A A73U C76A C85G C108A U146A, the “polymerase ribozyme fitness (log ratio)” value was at most -4.2. For A17U U90G C103A, the “polymerase ribozyme fitness (log ratio)” value was at most -4.2. For C18G A26C A107G, the “polymerase ribozyme fitness (log ratio)” value was at most -4.2. For A17C C38A G94A, the “polymerase ribozyme fitness (log ratio)” value was 0.661. In the case of C18G C76A C85U, the “polymerase ribozyme fitness (log ratio)” value is reported as -0.589. With C18G C27G U53G A120C the “polymerase ribozyme fitness (log ratio)” value was at most -4.2. With A17U C76A G83A C87G G124A A150C the “polymerase ribozyme fitness (log ratio)” value was at most -4.2. In the case of C18U C54U C57A G83U, the “polymerase ribozyme fitness (log ratio)” value is reported as -1.15. In the case of C18U G74C C96A, the “polymerase ribozyme fitness (log ratio)” value is reported as at most -4.2. For C18G A21U C35U C95U, the “polymerase ribozyme fitness (log ratio)” value was -1.12. With A17G A60G U61A A110G C118U C129A the “polymerase ribozyme fitness (log ratio)” value was at most -4.2. In the case of A16U C36A G92U A150U, the “polymerase ribozyme fitness (log ratio)” value is reported as at most -4.2.
